Assay results taken from PMC5467237.

Target: T1, hCHCHD2 WT expressed in CHCHD2-/- MEFs (human), Q9Y6H1
T1 chain: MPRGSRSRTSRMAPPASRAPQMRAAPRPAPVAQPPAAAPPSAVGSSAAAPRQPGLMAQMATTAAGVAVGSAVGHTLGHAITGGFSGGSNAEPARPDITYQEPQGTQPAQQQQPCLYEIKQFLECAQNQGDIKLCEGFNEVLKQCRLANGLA
Assay: cross-linking; hCHCHD2-expressing MEFs treated with or without 0.5 μg/ml DSP in PBS for 20 min at RT, lysed, western blot with anti-CHCHD2; ratio of monomer signals to total signals
Conditions: remark: other sources report otherwise

monomer form as share of total CHCHD2 signals (% of total CHCHD2 signals): < 50 | stoichiometry N: 2
B1: hCHCHD2 WT expressed in CHCHD2-/- MEFs, Q9Y6H1 1-151 (natural protein)
chain: MPRGSRSRTSRMAPPASRAPQMRAAPRPAPVAQPPAAAPPSAVGSSAAAPRQPGLMAQMATTAAGVAVGSAVGHTLGHAITGGFSGGSNAEPARPDITYQEPQGTQPAQQQQPCLYEIKQFLECAQNQGDIKLCEGFNEVLKQCRLANGLA
